From article PMC8928417 come the findings set out here.

The assay has as its target biotinylated histone H3 peptide trimethylated at lysine 27, H3K27me3 (21–44) (UniProt P68431). Briefly: peptide or protein array.

“polycomb-based transcription factor (PcTF), monovalent (from UniProt Q9HC52 1-62) (designed binder)”: the Kd is 5.14 to 8.95 µM.
